The nature of this series: collision cross section of modified peptide (TIMS, N2, iRT-aligned); higher = larger / more extended gas-phase ion. The method in brief: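 Values are averages of 1–3 technical replicates of the most abundant feature for each charge state. Collision cross section was obtained from the Mason-Schamp equation after 1/K0 calibration with three reference ions and run-wise alignment to the median iRT peptide deviation. Synthetic peptide pools (iRT standard spiked 1:40) were separated on a 120-min nanoflow C18 gradient at 60 °C, analysed on a timsTOF Pro/HT (dda-PASEF, nitrogen, ~2.4 mbar) and identified with MaxQuant.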

[1] abbreviates: charge state: 2, modification: Butyryl.
[2] abbreviates: charge state: 3, modification: Butyryl.
The mark [3] stands for this setting: charge state: 2, modification: Citrullination (R).
[4] abbreviates: charge state: 3, modification: Citrullination (R).
[5] abbreviates: charge state: 2, modification: Crotonyl.
The mark [6] stands for this setting: charge state: 3, modification: Crotonyl.
Setting [7] is: charge state: 2, modification: Dimethyl (K).
Where [8] appears, read: charge state: 3, modification: Dimethyl (K).
Setting [9] is: charge state: 2, modification: Nitro (Y).
The mark [10] stands for this setting: charge state: 2, modification: Biotin.
[11] abbreviates: charge state: 2, modification: hydroxyisobutyryl.
Setting [12] is: charge state: 3, modification: hydroxyisobutyryl.
[13] abbreviates: charge state: 2, modification: Trimethyl (K).
The mark [14] stands for this setting: charge state: 3, modification: Trimethyl (K).
Where [15] appears, read: charge state: 2, modification: Acetyl (K).
[16] abbreviates: charge state: 3, modification: Methyl (R).
[17] abbreviates: charge state: 2, modification: Glutarylation.
[18] abbreviates: charge state: 3, modification: Glutarylation.
Where [19] appears, read: charge state: 2, modification: GlyGly (K).
[20] abbreviates: charge state: 3, modification: GlyGly (K).
[21] abbreviates: charge state: 2, modification: Propionyl.
Where [22] appears, read: charge state: 2, modification: Hydroxyproline.
The mark [23] stands for this setting: charge state: 2, modification: Formyl.
Where [24] appears, read: charge state: 3, modification: Formyl.

± gives the standard deviation.

“VYIASSSGSTAIKK [_VYIASSSGSTAIK(Butyryl)K_]”: the collision cross section by setting is: under setting [1], 422.89 ± 0.77 Å²; under setting [2], 508.32 ± 2.9 Å².
The sequence “GSGLGARGSSYGVTSTESYK [_GSGLGAR(Citrullination (R))GSSYGVTSTESYK_]” returned a collision cross section under setting [3] of 458.29 ± 0.18 Å² and a collision cross section under setting [4] of 548.1 Å².
Under setting [1], SKLLFSNTAAQK [_SK(Butyryl)LLFSNTAAQK_] registered a collision cross section of 402.3 ± 1.3 Å².
In the case of “AGQKLIDVNHYAK [_AGQK(Crotonyl)LIDVNHYAK_]”, the collision cross section is listed as 434.02 ± 0.33 Å² under setting [5] and 485.3 ± 1.3 Å² under setting [6].
As to “DASTLQSQKAEGTGDAK [_DASTLQSQK(Dimethyl (K))AEGTGDAK_]”, the collision cross section under setting [7] was determined as 438.33 ± 1.3 Å² and the collision cross section under setting [8] was 482.19 ± 4.5 Å².
Under setting [9], “YADLTEDQLPSCESLK [_Y(Nitro (Y))ADLTEDQLPSCESLK_]” yielded a collision cross section of 442.66 ± 0.55 Å².
Under setting [10], LAEEENKAK [_LAEEENK(Biotin)AK_] registered a collision cross section of 371.22 Å².
As for “DTPTSAGPNSFNKGK [_DTPTSAGPNSFNK(hydroxyisobutyryl)GK_]”, the collision cross section reads like this: under setting [11], 416.06 ± 1.1 Å²; under setting [12], 443.44 ± 3 Å².
Regarding “SDDESSQKDIK [_SDDESSQK(Trimethyl (K))DIK_]”, the collision cross section stood at 380.2 ± 1.7 Å² under setting [13] and 430.76 ± 2.7 Å² under setting [14].
The sequence “ASDTSSETVFGKR [_ASDTSSETVFGK(hydroxyisobutyryl)R_]” yielded a collision cross section under setting [11] of 403.06 ± 1.1 Å² and a collision cross section under setting [12] of 485.06 ± 0.47 Å².
LQNSYQPTNK [_LQNSY(Phospho (Y))QPTNK_] gave a collision cross section (charge state: 2, modification: Phospho (Y)) of 366.81 ± 0.064 Å².
Under setting [15], KFGVLSDNFK [_K(Acetyl (K))FGVLSDNFK_] registered a collision cross section of 370.76 ± 0.46 Å².
The sequence “GTISAPGKVVTAAAQAK [_GTISAPGK(Crotonyl)VVTAAAQAK_]” showed a collision cross section under setting [5] of 447.33 ± 0.83 Å² and a collision cross section under setting [6] of 518.96 ± 1.2 Å².
In turn, “GLATFPSRGAK [_GLATFPSR(Citrullination (R))GAK_]” yielded a collision cross section under setting [3] of 353.86 ± 0.53 Å².
For the sequence “PLPVALQTRLAK [_PLPVALQTR(Methyl (R))LAK_]”, the collision cross section runs as follows: (charge state: 2, modification: Methyl (R)) 400.79 ± 0.32 Å²; under setting [16], 474 ± 2.6 Å².
In the case of VHATSTYR [_VHATSTY(Nitro (Y))R_], the collision cross section by setting is: under setting [9], 330 ± 0.55 Å²; (charge state: 3, modification: Nitro (Y)) 400.02 ± 0.83 Å².
Take “VLTANSNPSSPSAAKR [_VLTANSNPSSPSAAK(Gluratylation)R_]”: the collision cross section is, setting by setting: under setting [17], 432.88 ± 2 Å²; under setting [18], 532.45 ± 0.12 Å².
“VQGGALEDSQLVAGVAFKK [_VQGGALEDSQLVAGVAFK(Trimethyl (K))K_]”: the collision cross section by setting is: under setting [13], 515.46 ± 1.1 Å²; under setting [14], 564.46 ± 0.92 Å².
In the case of “IHNAENIQPGEQKYEYK [_IHNAENIQPGEQK(Gluratylation)YEYK_]”, the collision cross section reads like this: under setting [17], 490.8 ± 1.2 Å²; under setting [18], 532.09 ± 1.1 Å².
As to “VGEFSGANKEK [_VGEFSGANK(hydroxyisobutyryl)EK_]”, the collision cross section by setting is: under setting [11], 364.17 ± 0.9 Å²; under setting [12], 444.77 Å².
IGNSYFKEEK [_IGNSYFK(GlyGly (K))EEK_]: the collision cross section came to 386.48 ± 0.54 Å² under setting [19] and 442.05 ± 1.6 Å² under setting [20].
For LLEQKTQESQK [_LLEQK(Propionyl)TQESQK_], the collision cross section under setting [21] was 393.54 ± 0.65 Å².
Take “GGSGGRGVSVSSAR [_GGSGGR(Citrullination (R))GVSVSSAR_]”: the collision cross section runs as follows: under setting [3], 361.74 ± 2.3 Å²; under setting [4], 445.09 ± 2.9 Å².
As for “GTISAPGKVVTAAAQAK [_GTISAPGK(Butyryl)VVTAAAQAK_]”, the collision cross section is recorded as 447.93 ± 0.25 Å² under setting [1] and 519.35 ± 2.9 Å² under setting [2].
Turning to DHLSDKESK [_DHLSDK(GlyGly (K))ESK_], the collision cross section is, setting by setting: under setting [19], 353.15 ± 0.53 Å²; under setting [20], 411.26 Å².
On to “SLFFGGKGAPLQR [_SLFFGGK(GlyGly (K))GAPLQR_]”, for which the collision cross section runs as follows: under setting [19], 414.92 ± 0.35 Å²; under setting [20], 468.6 ± 1.1 Å².
Take “DSSPTTNSKLSALQR [_DSSPTTNSK(Acetyl (K))LSALQR_]”: the collision cross section runs as follows: under setting [15], 430.6 ± 0.81 Å²; (charge state: 3, modification: Acetyl (K)) 495.74 ± 2.2 Å².
As for “IHNAENIQPGEQKYEYK [_IHNAENIQPGEQK(Crotonyl)YEYK_]”, under setting [6], the collision cross section is recorded as 531.58 ± 2.8 Å².
LEKTIDDLEEK [_LEK(Biotin)TIDDLEEK_] gave a collision cross section under setting [10] of 422.95 ± 1.4 Å².
For “FGTINIVHPKLGSYTK [_FGTINIVHPK(Gluratylation)LGSYTK_]”, the collision cross section runs as follows: under setting [17], 478.34 Å²; under setting [18], 554.9 ± 0.14 Å².
“TPNLYIYSKK [_TPNLYIYSK(Gluratylation)K_]”: the collision cross section runs as follows: under setting [17], 398.57 ± 0.6 Å²; under setting [18], 451.21 ± 1.7 Å².
In the case of ITGKNQVTATK [_ITGK(Propionyl)NQVTATK_], under setting [21], the collision cross section turned out to be 368.3 ± 0.65 Å².
With “GFPGAPGLPGLK [_GFPGAP(Hydroxyproline)GLPGLK_]”, the collision cross section under setting [22] is listed as 358.41 ± 0.79 Å².
Still for that read-out and setting: the result for “PGPQPSAETTR [_PGP(Hydroxyproline)QPSAETTR_]” reads 345.87 ± 0.25 Å².
“ETTPSSLAVTQTMATK [_ETTPSSLAVTQT(HexNAc (ST))MATK_]” yielded a collision cross section (charge state: 2, modification: HexNAc (ST)) of 451.07 Å².
On to “DKALPLEAEVAPVK [_DK(GlyGly (K))ALPLEAEVAPVK_]”, for which the collision cross section was determined as 422.58 ± 0.97 Å² under setting [19] and 511.69 ± 1.3 Å² under setting [20].
Regarding “DASTLQSQKAEGTGDAK [_DASTLQSQK(Formyl)AEGTGDAK_]”, the collision cross section was found to be 431.62 ± 0.17 Å² under setting [23] and 503.35 ± 3 Å² under setting [24].
“DYSAPVNFISAGLKK [_DYSAPVNFISAGLK(Formyl)K_]”: the collision cross section is 433.25 ± 0.72 Å² under setting [23] and 526.56 ± 0.68 Å² under setting [24].
For the sequence “VNVEAPDVNLEGLGGKLK [_VNVEAPDVNLEGLGGK(Crotonyl)LK_]”, the collision cross section under setting [5] stood at 459.79 Å².
Turning to “DAEAAEATAEGALKAEK [_DAEAAEATAEGALK(Dimethyl (K))AEK_]”, the collision cross section runs as follows: under setting [7], 461.24 ± 1.8 Å²; under setting [8], 536.26 ± 0.61 Å².
On to GAEKTEVAEPR [_GAEK(Biotin)TEVAEPR_], for which the collision cross section under setting [10] is listed as 393.63 Å².
Take “RLPTTGYLVYR [_R(Citrullination (R))LPTTGYLVYR_]”: under setting [3], the collision cross section was 383.11 ± 0.23 Å².
The sequence GSLEKGSPEDK [_GSLEK(Propionyl)GSPEDK_] displayed a collision cross section under setting [21] of 368.76 ± 0.94 Å².
Take “SLGEPAAGEGSAKR [_SLGEPAAGEGSAK(hydroxyisobutyryl)R_]”: the collision cross section stood at 389.47 ± 1.5 Å² under setting [11] and 485.86 ± 2.8 Å² under setting [12].
“IGNSYFKEEK [_IGNSYFK(Trimethyl (K))EEK_]”: the collision cross section came out at 378.87 ± 0.63 Å² under setting [13] and 441.97 ± 1.8 Å² under setting [14].
Under setting [1], GEVQVSDKER [_GEVQVSDK(Butyryl)ER_] yielded a collision cross section of 363.29 ± 0.49 Å².
Consider “GTITVSAQELKDNR [_GTITVSAQELK(Dimethyl (K))DNR_]”, for which the collision cross section is, setting by setting: under setting [7], 437.65 ± 1.3 Å²; under setting [8], 475.47 ± 2.4 Å².
Under setting [5], LDEKENLSAK [_LDEK(Crotonyl)ENLSAK_] yielded a collision cross section of 370.68 ± 0.26 Å².
Take “PSVGSQSNQAGQGKR [_PSVGSQSNQAGQGK(Malonyl)R_]”: the collision cross section runs as follows: (charge state: 2, modification: Malonyl) 406.87 ± 1.8 Å²; (charge state: 3, modification: Malonyl) 446.38 Å².
Consider “IVEKYGYTHLSAGELLR [_IVEK(Gluratylation)YGYTHLSAGELLR_]”, for which the collision cross section under setting [18] came to 567.6 ± 0.21 Å².
On to “DSSPTTNSKLSALQR [_DSSPTTNSK(GlyGly (K))LSALQR_]”, for which the collision cross section reads like this: under setting [19], 434.5 ± 1.6 Å²; under setting [20], 501.52 ± 0.79 Å².
Regarding “NLVTGDHIPTPQDLPQR [_NLVT(HexNAc (ST))GDHIPTPQDLPQR_]”, for the setting “charge state: 3, modification: HexNAc (ST)”, the collision cross section was 500.97 Å².
Sequence RGATPPAPPRR [_R(Methyl (R))GATPPAPPRR_] had a collision cross section under setting [16] of 465.62 ± 0.37 Å².
For “GFCFITYTDEEPVKK [_GFCFITYTDEEPVK(Gluratylation)K_]”, under setting [17], the collision cross section amounted to 471.64 ± 1.5 Å².
Consider “GTISAPGKVVTAAAQAK [_GTISAPGK(Biotin)VVTAAAQAK_]”, for which the collision cross section came out at 458.66 ± 0.47 Å² under setting [10] and 550.8 ± 0.34 Å² (charge state: 3, modification: Biotin).
In the case of PPGFSPFR [_PP(Hydroxyproline)GFSPFR_], the collision cross section under setting [22] is recorded as 331.47 ± 1.3 Å².
The sequence LTSLNVKYNNDK [_LTSLNVK(Crotonyl)YNNDK_] had a collision cross section under setting [5] of 414.39 ± 1.1 Å².

The record behind these values is the supplement of paper PMC10598134.
